Data as given in paper PMC3299919.

Molecular target: Nucleocapsid protein N (Rift Valley fever virus (strain M12)) (UniProt P21700)
Assay: FP competition
Conditions: 10 mM HEPES pH 7.3 ([…]) or pH 8 ([…]

UniProt P21700, sequence (P21700 whole entry): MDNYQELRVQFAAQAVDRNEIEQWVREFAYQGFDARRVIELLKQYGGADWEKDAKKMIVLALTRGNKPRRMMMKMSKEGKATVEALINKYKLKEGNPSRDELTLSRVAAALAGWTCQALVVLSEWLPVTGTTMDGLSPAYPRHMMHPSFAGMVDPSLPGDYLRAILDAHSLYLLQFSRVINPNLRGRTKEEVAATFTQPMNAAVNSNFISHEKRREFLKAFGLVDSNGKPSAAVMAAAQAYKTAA

CGUCCCGUAGUGUCGGUACUGAUUGAUGUG [MBE15.3]
Ki: 200 nM
